Measurements as given in patent US20200164038A1, “MODIFIED NUCLEOSIDE, NUCLEOTIDE, AND NUCLEIC ACID COMPOSITIONS” (ModernaTX, Inc., priority 2011, published 2020).

Tests used:
[1] = LNP formulations in mice, serum G-CSF or EPO by ELISA; format: in vivo; settings: mice IV; for time out to which protein expression was detectable: LNP
Protocol: Formulations, listed in Table 31, were characterized by particle size, zeta potential, and encapsulation.
LNP formulations, shown in Table 31 (above), were administered to mice (n=4) intravenously (IV) at a single modified mRNA dose 0.05 mg/kg or 0.005 mg/kg. There was also 3 control groups of mice (n=4) that were untreated. The mice were bled at 2 hours, 8 hours, 24 hours, 48 hours and 72 hours after they were administered with G-CSF or EPO modified mRNA formulations to determine the protein expression. Protein expression of G-CSF and EPO were determined using ELISA.

[2] = test system: Neutrophil and reticulocyte count; test: Non-human primate hematology: neutrophil and reticulocyte count, hemoglobin, hematocrit, red blood cells; format: in vivo, cynomolgus monkey; settings: for Female NHP Neutrophils: Table 39, 0.005 mg/kg IV LNP
Protocol: LNP formulations, shown in Table 31 (above), were administered to non-human primates (NHP) (cynomolgus monkey) (n=2) as intravenous injection (IV). The NHP were administered a single modified mRNA IV dose of 0.5 mg/kg, 0.05 mg/kg or 0.005 mg/kg of G-CSF or EPO in a dose volume of 0.5 mL/kg. The NHPs were bled before dosing with the modified mRNA LNP formulations to determine protein expression in the serum and a baseline complete blood count. After administration with the G-CSF modified mRNA formulation the NHP were bled at 8, 24, 48 and 72 hours to determined protein expression. After administration with the EPO modified mRNA formulation the NHP were bled at 8, 24, 48, 72 hours and 7 days to determined protein expression.
Samples collected from the NHPs after they were administered with G-CSF or EPO modified mRNA formulations were analyzed by ELISA to determine protein expression. Neutrophil and reticulocyte count was also determined pre-dose, 24 hours, 3 days, 7 days, 14 days and 18 days after administration of the modified G-CSF or EPO formulation.

[3] = Female NHP, 0.5 mg/kg, 24 hours

B1: G-CSF: human G-CSF mRNA, SEQ ID NO: 6, polyA about 160 nt, Cap1, fully modified with 5-methylcytosine and pseudouridine (nucleic acid, listed as Homo sapiens)
chain: GGGAAAUAAGAGAGAAAAGAAGAGUAAGAAGAAAUAUAAGAGCCACCAUGGCCGGUCCCGCGACCCAAAGCCCCAUGAAACUUAUGGCCCUGCAGUUGCUGCUUUGGCACUCGGCCCUCUGGACAGUCCAAGAAGCGACUCCUCUCGGACCUGCCUCAUCGUUGCCGCAGUCAUUCCUUUUGAAGUGUCUGGAGCAGGUGCGAAAGAUUCAGGGCGAUGGAGCCGCACUCCAAGAGAAGCUCUGCGCGACAUACAAACUUUGCCAUCCCGAGGAGCUCGUACUGCUCGGGCACAGCUUGGGGAUUCCCUGGGCUCCUCUCUCGUCCUGUCCGUCGCAGGCUUUGCAGUUGGCAGGGUGCCUUUCCCAGCUCCACUCCGGUUUGUUCUUGUAUCAGGGACUGCUGCAAGCCCUUGAGGGAAUCUCGCCAGAAUUGGGCCCGACGCUGGACACGUUGCAGCUCGACGUGGCGGAUUUCGCAACAACCAUCUGGCAGCAGAUGGAGGAACUGGGGAUGGCACCCGCGCUGCAGCCCACGCAGGGGGCAAUGCCGGCCUUUGCGUCCGCGUUUCAGCGCAGGGCGGGUGGAGUCCUCGUAGCGAGCCACCUUCAAUCAUUUUUGGAAGUCUCGUACCGGGUGCUGAGACAUCUUGCGCAGCCGUGAAGCGCUGCCUUCUGCGGGGCUUGCCUUCUGGCCAUGCCCUUCUUCUCUCCCUUGCACCUGUACCUCUUGGUCUUUGAAUAAAGCCUGAGUAGGAAG
modifications: Cap1; polyA; 5-methylcytosine, pseudouridine
**Q.** For B1, which “G-CSF Serum Concentration” value ([1]; LNP NPA-030-2, 0.005 mg/kg, 2 hours) is on record?
**A.** The value was 3,447.8 pg/ml.

**Q.** And the “G-CSF Serum Concentration” value ([1]; LNP NPA-030-2, 0.005 mg/kg, 8 hours)?
**A.** Its value is 11,454.0 pg/ml.

**Q.** And the “G-CSF Serum Concentration” value ([1]; LNP NPA-030-2, 0.005 mg/kg, 24 hours)?
**A.** The value was 4,960.2 pg/ml.

**Q.** What about the “G-CSF Serum Concentration” value ([1]; LNP NPA-030-2, 0.005 mg/kg, 48 hours) of the same molecule?
**A.** The value was 686.4 pg/mL.

**Q.** And the “G-CSF Serum Concentration” value ([1]; LNP NPA-030-2, 0.05 mg/kg, 2 hours)?
**A.** Its value is 20,951.4 pg/ml.

**Q.** And the “G-CSF Serum Concentration” value ([1]; LNP NPA-030-2, 0.05 mg/kg, 8 hours)?
**A.** The value was 20,012.8 pg/ml.

**Q.** And the “G-CSF Serum Concentration” value ([1]; LNP NPA-030-2, 0.05 mg/kg, 24 hours)?
**A.** Its value is 19,356.2 pg/ml.

**Q.** And the “G-CSF Serum Concentration” value ([1]; LNP NPA-030-2, 0.05 mg/kg, 48 hours)?
**A.** Its value is 1,963.0 pg/ml.

**Q.** What about the “G-CSF Serum Concentration” value ([1]; LNP NPA-030-2, 0.05 mg/kg, 72 hours) of the same molecule?
**A.** The value was 47.3 pg/mL.

**Q.** And the “time out to which protein expression was detectable” value ([1]; 0.005 mg/kg)?
**A.** The value was no less than 48 h.

**Q.** What about the “time out to which protein expression was detectable” value ([1]; 0.05 mg/kg) of the same molecule?
**A.** The value was no less than 72 h.

**Q.** And the “Hematocrit (HCT)” value ([2]; Female NHP, 0.005 mg/kg, 14/18 days)?
**A.** Its value is 0.42 L/L.

**Q.** And the “Hematocrit (HCT)” value ([2]; Female NHP, 0.005 mg/kg, 24 hours)?
**A.** Its value is 0.42 L/L.

**Q.** What about the “Hematocrit (HCT)” value ([2]; Female NHP, 0.005 mg/kg, 3 days) of the same molecule?
**A.** The value was 0.41 L/L.

**Q.** What about the “Hematocrit (HCT)” value ([2]; Female NHP, 0.005 mg/kg, 7 days) of the same molecule?
**A.** The value was 0.42 L/L.

**Q.** What about the “Hematocrit (HCT)” value ([2]; Female NHP, 0.005 mg/kg, Pre-dose) of the same molecule?
**A.** The value was 0.42 L/L.

**Q.** And the “Hematocrit (HCT)” value ([2]; Female NHP, 0.05 mg/kg, 14/18 days)?
**A.** Its value is 0.4 L/L.

**Q.** What about the “Hematocrit (HCT)” value ([2]; Female NHP, 0.05 mg/kg, 24 hours) of the same molecule?
**A.** Its value is 0.4 L/L.

**Q.** What about the “Hematocrit (HCT)” value ([2]; Female NHP, 0.05 mg/kg, 3 days) of the same molecule?
**A.** Its value is 0.39 L/L.

**Q.** What about the “Hematocrit (HCT)” value ([2]; Female NHP, 0.05 mg/kg, 7 days) of the same molecule?
**A.** The value was 0.4 L/L.

**Q.** And the “Hematocrit (HCT)” value ([2]; Female NHP, 0.05 mg/kg, Pre-dose)?
**A.** Its value is 0.44 L/L.

**Q.** What about the “Hematocrit (HCT)” value ([2]; Female NHP, 0.5 mg/kg, 14/18 days) of the same molecule?
**A.** Its value is 0.37 L/L.

**Q.** And the “Hematocrit (HCT)” value [2, 3]?
**A.** Its value is 0.38 L/L.

**Q.** And the “Red Blood Cells (RBC)” value [2, 3]?
**A.** The value was 4.95 10^12/L.

**Q.** What about the “Hematocrit (HCT)” value ([2]; Female NHP, 0.5 mg/kg, 3 days) of the same molecule?
**A.** The value was 0.38 L/L.

**Q.** What about the “Hematocrit (HCT)” value ([2]; Female NHP, 0.5 mg/kg, 7 days) of the same molecule?
**A.** The value was 0.38 L/L.

**Q.** What about the “Hematocrit (HCT)” value ([2]; Female NHP, 0.5 mg/kg, Pre-dose) of the same molecule?
**A.** Its value is 0.43 L/L.

**Q.** What about the “Hematocrit (HCT)” value ([2]; Male NHP, 0.005 mg/kg, 14/18 days) of the same molecule?
**A.** Its value is 0.41 L/L.

**Q.** What about the “Hematocrit (HCT)” value ([2]; Male NHP, 0.005 mg/kg, 24 hours) of the same molecule?
**A.** The value was 0.4 L/L.

**Q.** What about the “Hematocrit (HCT)” value ([2]; Male NHP, 0.005 mg/kg, 3 days) of the same molecule?
**A.** The value was 0.4 L/L.

**Q.** What about the “Hematocrit (HCT)” value ([2]; Male NHP, 0.005 mg/kg, 7 days) of the same molecule?
**A.** Its value is 0.39 L/L.

**Q.** And the “Hematocrit (HCT)” value ([2]; Male NHP, 0.005 mg/kg, Pre-dose)?
**A.** Its value is 0.42 L/L.

**Q.** What about the “Hematocrit (HCT)” value ([2]; Male NHP, 0.05 mg/kg, 14/18 days) of the same molecule?
**A.** Its value is 0.44 L/L.

**Q.** And the “Hematocrit (HCT)” value ([2]; Male NHP, 0.05 mg/kg, 24 hours)?
**A.** Its value is 0.39 L/L.

**Q.** And the “Hematocrit (HCT)” value ([2]; Male NHP, 0.05 mg/kg, 3 days)?
**A.** Its value is 0.41 L/L.

**Q.** What about the “Hematocrit (HCT)” value ([2]; Male NHP, 0.05 mg/kg, 7 days) of the same molecule?
**A.** The value was 0.42 L/L.

**Q.** What about the “Hematocrit (HCT)” value ([2]; Male NHP, 0.05 mg/kg, Pre-dose) of the same molecule?
**A.** The value was 0.44 L/L.

**Q.** And the “Hematocrit (HCT)” value ([2]; Male NHP, 0.5 mg/kg, 14/18 days)?
**A.** Its value is 0.34 L/L.

**Q.** What about the “Hematocrit (HCT)” value ([2]; Male NHP, 0.5 mg/kg, 24 hours) of the same molecule?
**A.** The value was 0.37 L/L.

**Q.** What about the “Hematocrit (HCT)” value ([2]; Male NHP, 0.5 mg/kg, 3 days) of the same molecule?
**A.** Its value is 0.39 L/L.

**Q.** And the “Red Blood Cells (RBC)” value ([2]; Male NHP, 0.5 mg/kg, 3 days)?
**A.** The value was 1.91 10^12/L.

**Q.** And the “Hematocrit (HCT)” value ([2]; Male NHP, 0.5 mg/kg, 7 days)?
**A.** The value was 0.39 L/L.

**Q.** And the “Hematocrit (HCT)” value ([2]; Male NHP, 0.5 mg/kg, Pre-dose)?
**A.** Its value is 0.46 L/L.

**Q.** What about the “neutrophils relative to pre-dose levels” value ([2]; NHP IV LNP, all G-CSF groups) of the same molecule?
**A.** Its value is “increase in neutrophils”.

**Q.** And the “Female NHP Neutrophils” value ([2]; 14/18 days)?
**A.** Its value is 0.057 10^12/L.

**Q.** What about the “Female NHP Neutrophils” value ([2]; 24 hours) of the same molecule?
**A.** Its value is 0.07 10^12/L.

**Q.** And the “Female NHP Neutrophils” value ([2]; 3 days)?
**A.** Its value is 0 .054 10^12/L.
